± gives the uncertainty stated by the source.
Test: protein stability index of a GFP-peptide fusion (yeast GPS) (PSI 1-4); higher = more stable; sorted into four equal gates, so the index is relative within each strain
Outline: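 Tiled yeast protein peptides of 17 residues were each joined downstream of GFP, on plasmids that also express Cherry. The pooled library was maintained in yeast, and mid-log cultures in leucine-free medium were sorted into four equal gates on the GFP/Cherry ratio. Plasmids from every gate were amplified by PCR and sequenced on Illumina, with barcodes linking reads to strains. The protein stability index of a peptide is its gate-number-weighted read frequency summed over the gates.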

Sequence | protein stability index (doa10∆) | protein stability index (pdr5∆) | protein stability index (san1∆) | protein stability index (ubr1∆)
TSFDIKREGRNELQEER [POP6] | 3.46 ± 0.12 | 3.02 ± 0.15 | 3.73 ± 0.11 | 3.27 ± 0.07
YWTQYLGLFIHKISFSG [YJL039C/NUP192] | 1.99 ± 0.076 | 1.8 ± 0.058 | 1.59 ± 0.1 | 1.89 ± 0.05
LGAIEQILIFAADTSIV [YJL039C/NUP192] | 1.47 ± 0.09 | 2.02 ± 0.049 | 1.72 ± 0.091 | 2.56 ± 0.099
EQQKEELTDKLSALNSE [SMC1] | – | 3.19 ± 0.11 | 2.73 ± 0.15 | 3.14 ± 0.12
GNAPATPSSDQNPLPTR [SOH1] | 3.44 ± 0.13 | 2.98 ± 0.065 | 2.63 ± 0.077 | 3.17 ± 0.067
GVTKGYKYKMRYVYAHF [RPL9A] | 2.73 ± 0.14 | – | 3.12 ± 0.12 | 2.87 ± 0.16
MKLVNFLKKLRNEQVTI [SMD1] | 1.87 ± 0.17 | 1.93 ± 0.095 | 2.04 ± 0.14 | 2.5 ± 0.11
PSHYPHPYEYEIDHQEY [RRP6] | 2.41 ± 0.055 | 2.58 ± 0.055 | 2.17 ± 0.078 | 2.27 ± 0.035
LKFMAASEVATHSKLFA [PRP8] | 2.91 ± 0.085 | 3.07 ± 0.082 | 2.78 ± 0.062 | 2.7 ± 0.073
GVWDVDNPLRQIPHFNN [BRR2] | 3.26 ± 0.077 | 3.24 ± 0.083 | 3.26 ± 0.065 | 3.13 ± 0.07
EGWPKFQDTLYKKIPLL [QCR10] | 2.8 ± 0.087 | 1.63 ± 0.079 | 1.85 ± 0.098 | 1.43 ± 0.069
ATVPSAPYRKQIISNAH [YAR002W/NUP60] | 2.34 ± 0.062 | 2.41 ± 0.069 | 1.88 ± 0.093 | 2.37 ± 0.06
RVASDTVHEMEEELKKL [SMC4] | 3.37 ± 0.21 | 3.33 ± 0.18 | 3.29 ± 0.12 | 3.63 ± 0.19
KLLAISKFNNADDVFTG [RPC31] | 3.03 ± 0.15 | 2.9 ± 0.2 | 2.92 ± 0.13 | 2.57 ± 0.12
TPSFSFGKTTANLPANS [YLR335W/NUP2] | 2.84 ± 0.069 | 2.96 ± 0.1 | 3.01 ± 0.13 | 3.19 ± 0.054
FPRTRFEAQIDSVEFIF [RPN10] | 2.61 ± 0.11 | 2.88 ± 0.066 | 2.62 ± 0.11 | 2.81 ± 0.068
QSSLSKVDIPLEVVQYI [NUT2] | 2.69 ± 0.081 | 2.16 ± 0.086 | 2.24 ± 0.083 | 2.29 ± 0.071
LNENARELEQIKPKIAL [SNF12] | 3.23 ± 0.3 | 3 ± 0.23 | 2.64 ± 0.25 | –
VSNRVAAPARAGAVAPE [RPP0] | 2.06 ± 0.11 | 2.54 ± 0.097 | 2.64 ± 0.11 | 2.56 ± 0.17
PIPVQGEIEIKPNEEEE [RPN13] | 2.45 ± 0.081 | 2.59 ± 0.067 | 2.58 ± 0.15 | 2.67 ± 0.1
SVINVSAQRDRRYRKRV [RPS17A] | 2.34 ± 0.06 | 2.06 ± 0.063 | 1.71 ± 0.1 | 2.06 ± 0.08
AGIKTRKFVFNPPKPRK [CYT1] | 3.06 ± 0.06 | 3.19 ± 0.074 | 3.03 ± 0.06 | 3.07 ± 0.063
SSSTQNVFVILMDKCLP [DIS3] | 1.97 ± 0.085 | 1.96 ± 0.053 | 2.13 ± 0.052 | 1.95 ± 0.043
QQAQAQAQAQAQAQAQA [GAL11] | 2.78 ± 0.097 | 3.06 ± 0.17 | 2.92 ± 0.081 | 3.12 ± 0.12
HTSIRETLENGETRMKM [SMC2] | 2.65 ± 0.11 | 2.79 ± 0.13 | 2.85 ± 0.12 | 2.95 ± 0.083
ANETDKRPTPPSFTFGG [YOR098C/NUP1] | 3.01 ± 0.042 | 3.18 ± 0.047 | 2.96 ± 0.037 | 3.1 ± 0.033

Sequence | protein stability index (doa10∆) | protein stability index (pdr5∆) | protein stability index (san1∆) | protein stability index (ubr1∆)
IVSKEYEKNFEATLESK [ESC2] | 2.98 ± 0.24 | 3.08 ± 0.17 | 2.9 ± 0.088 | 2.88 ± 0.18
HINSILLARVIQMNNSL [SNF11] | 2.22 ± 0.13 | 1.94 ± 0.11 | 1.96 ± 0.12 | 1.7 ± 0.092
EDGTIESYNQNDWKLET [SIN4] | 3.29 ± 0.22 | 3.02 ± 0.2 | 3.22 ± 0.12 | 2.98 ± 0.11
KQQDAEELFTQLFHSMS [UBP6] | 3.25 ± 0.059 | 3.31 ± 0.088 | 3.03 ± 0.088 | 3.14 ± 0.061
CWAVRADVHFLDCDGGF [RRP45] | 2.31 ± 0.2 | 2.65 ± 0.14 | 2.9 ± 0.085 | 2.72 ± 0.064
PPPYVKFFTQSNLEKLP [MED7] | 2.25 ± 0.036 | 2.29 ± 0.04 | 2.41 ± 0.049 | 2.49 ± 0.027
LAVEDKPSPIDSGIGSN [CSL4] | 3.02 ± 0.069 | 3.27 ± 0.062 | 3.06 ± 0.052 | 3.08 ± 0.044
QLQKILESLKPIDDTMT [MTW1] | 2.73 ± 0.072 | 2.86 ± 0.058 | 2.69 ± 0.052 | 2.59 ± 0.042
ASNGRNKKGRGHVKPVR [RPS26A] | 3.46 ± 0.075 | 3.35 ± 0.086 | 3.45 ± 0.082 | 3.3 ± 0.056
EYLKGSESQLNSTLKKV [YCS4] | 2.85 ± 0.17 | – | 2.5 ± 0.2 | –
LGTVQREIESLIAEETN [SMC3] | 2.79 ± 0.18 | 2.83 ± 0.082 | 3.01 ± 0.12 | 2.91 ± 0.15
HKSDVMSVDIDKKASMI [ASC1] | 3 ± 0.1 | 2.79 ± 0.083 | 2.48 ± 0.082 | 2.87 ± 0.11
TEHVRQNAKLLANLIRD [RRP6] | 1.54 ± 0.046 | 1.93 ± 0.08 | 2.39 ± 0.14 | 1.62 ± 0.086
RYLVGGNKIQKVLLDSK [RPS7A] | 1.24 ± 0.084 | 2.01 ± 0.18 | 1.51 ± 0.25 | 1.7 ± 0.17
DTSDIIVDPTAEQLKIS [RRP46] | 1.79 ± 0.091 | 2.19 ± 0.097 | 2.73 ± 0.14 | 2.12 ± 0.092
NPIHVSRHFASYANLPG [FAS1] | 2.23 ± 0.059 | 2.36 ± 0.05 | 1.94 ± 0.081 | 2.11 ± 0.038
LILRDFLNNGEVDSASD [RPN3] | 3.07 ± 0.19 | 2.89 ± 0.17 | 2.63 ± 0.23 | 3.2 ± 0.29
HKVSSQSTNLNRSAKNS [YCS4] | 2.24 ± 0.054 | 2.41 ± 0.05 | 2.38 ± 0.079 | 2.32 ± 0.05
DSKNTPNVFDKDSYVRI [YDL088C/ASM4] | 3.01 ± 0.12 | 3.11 ± 0.048 | 3.06 ± 0.072 | 3.25 ± 0.051
RCNDNLMRSCFYLMVSS [YJL039C/NUP192] | 1.46 ± 0.043 | 1.72 ± 0.054 | 2.31 ± 0.057 | 1.1 ± 0.038
SRLKALNLQFKAKVDDL [YLR335W/NUP2] | 3.12 ± 0.075 | 3.2 ± 0.091 | 3.05 ± 0.1 | 3.11 ± 0.069
KVVGPRGTLTKNLKHID [RPL9A] | 3.27 ± 0.072 | 2.98 ± 0.065 | 2.8 ± 0.086 | 2.35 ± 0.052
KIQETELKIRSKTENVR [RPT6] | 2.35 ± 0.11 | 2.61 ± 0.088 | 2.23 ± 0.16 | 2.57 ± 0.073
VPRKFKHFIQGGSFGNR [RPL7A] | 3.36 ± 0.13 | 2.85 ± 0.1 | 3.13 ± 0.12 | 2.17 ± 0.055
PSQFGMLCTADTPEGEA [RET1] | – | 1.7 ± 0.23 | 2.58 ± 0.22 | –
NNSNTVASSTNFTSPTA [SWI1] | 2.82 ± 0.039 | 2.67 ± 0.039 | 2.86 ± 0.041 | 2.71 ± 0.033

Source: the supplement of paper PMC9732359
